Laboratory results published in patent publication US20140178854A1.

Target: gp70 env protein of amphotropic MLV (4070A envelope), on purified viral particles (amphotropic murine leukemia virus (4070A envelope))
Assay: ELISA on plate-bound MLV, dilution factor 156250, Exp125-Ana Plate 2

Sequence of gp70 env protein of amphotropic MLV (4070A envelope), on purified viral particles (amphotropic murine leukemia virus (4070A envelope)) (P21995 whole entry): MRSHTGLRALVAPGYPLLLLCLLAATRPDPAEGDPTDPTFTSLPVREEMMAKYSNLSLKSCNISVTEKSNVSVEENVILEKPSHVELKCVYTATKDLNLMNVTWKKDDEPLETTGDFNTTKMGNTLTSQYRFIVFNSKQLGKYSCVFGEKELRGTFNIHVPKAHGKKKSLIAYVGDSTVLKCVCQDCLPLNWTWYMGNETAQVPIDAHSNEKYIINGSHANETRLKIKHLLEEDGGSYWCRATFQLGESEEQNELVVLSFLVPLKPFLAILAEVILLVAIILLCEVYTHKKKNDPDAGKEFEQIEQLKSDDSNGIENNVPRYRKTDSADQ

## 83A25 monoclonal antibody (rat IgG2a, anti-gp70)
  Mean OD: 0.124 OD
